Data taken from patent US20040076637A1, “HIV-derived HR1 peptides modified to form stable trimers, and their use in therapy to inhibit transmission of human immunodeficiency virus” (priority 2002, published 2004).

Columns and labels:
HIV infection of T cells = conditions: cited from earlier work
[1] = at concentrations of 5 μM or less; cited from earlier work
[2] = Oligomerization state by sedimentation equilibrium (analytical ultracentrifuge); type: physicochemical; conditions: in solution, 4° C.
Experimental: Oligomerization state was assessed by using methods standard in the art for performing sedimentation equilibrium experiments and for analysis of the resultant data. In that regard, sedimentation equilibrium experiments were performed over a concentration range of synthetic peptide (1 μM to […]) as follows. Briefly, six-channel cells (12 mm optical path length) were used with an An-60 Ti rotor operated at 13,500 rpm, 18,000 rpm, 22,000 rpm, and 35,000 rpm) in an analytical ultracentrifuge at 4° C. The cell radii were scanned using 0.001 cm steps with 10 averages/scan at 3 different wavelengths (235 nm, 240 nm, 280 nm). Data obtained with solutions containing synthetic peptide was analyzed using a single species model to determine a weight-averaged molecular weight (MW). Diagnostic plots of MW/MW0 vs. rpm/rpm0 and MW vs. radial concentration were used to test for sample homogeneity. When systemic residuals or a MW higher than monomer molecular weight indicated the presence of self-association, associative models were investigated. The suitability of a model (goodness of fit) was judged by the trends observed in the residuals.

[3] = Helicity by circular dichroism; type: physicochemical; conditions: at 10 μM, 25° C.
Experimental: (§1) Helicity was assessed by circular dichroism (“CD”) as follows. Briefly, CD spectra were obtained using a spectrometer equipped with a thermoelectric temperature controller. The spectra was obtained at 25° C. with 0.5 nanometer (nm) steps from 200 to 260 nm, with a 1.5 nm bandwith, and a typical averaging time of 4 seconds/step. After the cell/buffer blank was subtracted, spectra were smoothed using a third-order least-squares polynomial fit with a conservative window size to give random residuals. Raw ellipticity values were converted to mean residue ellipticity using standard methods, and plotted was the wavelength (from 200 to 260 nm) versus [θ]×10^−3 (degrees cm^2/dmol). Percent helicity values were then calculated using standard methods. Assessment of thermal stability was performed by monitoring the change in CD signal at 222 nm as temperature was raised in 2° C. steps, with 1 minute equilibration times. The thermal stability for each sample (e.g., synthetic peptide) was represented by the transition temperature (Tm) determined by the derivative method.

[4] = Thermal stability (Tm) by CD signal at 222 nm; type: physicochemical; conditions: at 10 μM
Experimental: as §1

[5] = test system: HR2 peptide (SEQ ID NO:33) derived from the HR2 region of HIV-1 gp41; experiment: HR2 peptide binding, fluorescence polarization assay; conditions: ability to complex with HR2 peptide denoted as yes
Text: These include a protein chip assay (using Biacore analysis) in which surface plasmon resonance is used to detect the binding, and kinetics thereof, between a synthetic peptide and an HR2 peptide; and a fluorescence polarization assay. In the fluorescence polarization assay, a detectable moiety comprising a fluorescent dye (e.g., rhodamine and/or fluorescein) was used to label HR2 peptide, and the assay was then allowed to proceed under sufficient conditions and for a sufficient period of time for labeled peptide to bind to HR1 peptide, or synthetic peptide (or trimer formed therefrom).

HIV IIIB = type: cell-based, HIV-1; conditions: for Antiviral activity against HIV IIIB IC50: 50% reduction in infectious virus titer; for Antiviral activity against HIV IIIB IC90: 90% reduction in infectious titer
[6] = target: HR2 peptide having the amino acid sequence of SEQ ID NO:33 (HIV-1); experiment: surface plasmon resonance (Biacore protein chip assay)

Molecule: DP107: HR1 peptide, also known as T-21, a synthetic peptide having the amino acid sequence of SEQ ID NO:2 (NNLLRAIEAQQHLLQLTVWGIKQLQARILAVERYLKDQ)
- 50% effective concentration (EC50), blocked infection of T cells (HIV infection of T cells): 1 mg/L
- Oligomerization state in solution [1]: monomer/dimer/tetramer equilibrium

Molecule: SEQ ID NO: 39: Same as SEQ ID NO:32 except substitutions at 6, 20, 41, 48 and 9, 16, 44; Asp and Gln added to C-terminus (QARQLVSGLVQQQNNILRALEAQQHALQATVWGIKQLQARVLALERYIKDQ)
- Oligomerization [2]: Trimer*
- Helicity [3]: 63%
- Stability Tm [4]: 68 °C
- HR2 peptide binding [5]: Yes
- Antiviral activity against HIV IIIB IC50 (HIV IIIB): 0.26 mg/L
- Antiviral activity against HIV IIIB IC90 (HIV IIIB): 1.20 mg/L

Molecule: SEQ ID NO: 38: Same as SEQ ID NO:32 except substitutions at 27, 34, 41, 48 and 23, 30, 44; Asp and Gln added to C-terminus (QARQLLSGIVQQQNNLLRAIEATQHAVQALVWGVKQLQARVLALERYIKDQ)
- Oligomerization [2]: Trimer*
- Helicity [3]: 79%
- Stability Tm [4]: 90 °C
- HR2 peptide binding [5]: Yes
- Antiviral activity against HIV IIIB IC50 (HIV IIIB): 0.18 mg/L
- Antiviral activity against HIV IIIB IC90 (HIV IIIB): 0.88 mg/L

B1: synthetic peptide having the amino acid sequence of SEQ ID NO:35 (peptide)
peptide: QARQLVSGLVQQQNNILRALEATQHAVQALVWGVKQLQARVLALERYIK
modifications: not checked
- Kd [6]: 0.0218 µM
